Molecular target: HPV52L1-C428A (human papillomavirus type 52 (HPV52))
Assay: SEC; HPSEC on TSK Gel G 5000 pwxl, 10 mM PB pH 6.5, 0.5 M NaCl; serial molar ratios of C175A and C428A mutants; chVLP fraction analysed by SDS-PAGE and western blotting; pentamers to VLP

HPV16L1-C175A (domain or fragment) showed a stoichiometry N (C175A:C428A molar ratio) of 1.
